Measurements reported in US20210388081A1 (Memorial Sloan Kettering, published 2021).

Experiments:
[1] = molecular target: T1, FcRL6, overexpressed on 3T3 cells (UniProt Q6DN72 20-434, limits assumed); test: phage clone on 3T3-FcRL6 cells
T1 construct: whole, on cells
T1 sequence (looked up): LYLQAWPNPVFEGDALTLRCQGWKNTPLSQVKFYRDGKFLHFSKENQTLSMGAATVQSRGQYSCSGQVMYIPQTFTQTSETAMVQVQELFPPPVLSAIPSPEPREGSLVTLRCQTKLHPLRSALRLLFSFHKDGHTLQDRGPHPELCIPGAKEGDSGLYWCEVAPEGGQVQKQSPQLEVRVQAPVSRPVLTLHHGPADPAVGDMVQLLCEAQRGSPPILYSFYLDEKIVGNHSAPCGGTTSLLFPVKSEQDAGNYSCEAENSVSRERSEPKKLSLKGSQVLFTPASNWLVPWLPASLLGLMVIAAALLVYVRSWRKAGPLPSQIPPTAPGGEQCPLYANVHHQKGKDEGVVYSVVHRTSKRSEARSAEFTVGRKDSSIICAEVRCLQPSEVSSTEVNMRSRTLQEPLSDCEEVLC

[2] = molecular target: T2, FcRL4, overexpressed on 3T3 cells (UniProt Q96PJ5 20-515, limits assumed); test: phage clone on 3T3-FcRL4 cells
T2 construct: whole, on cells
T2 sequence (looked up): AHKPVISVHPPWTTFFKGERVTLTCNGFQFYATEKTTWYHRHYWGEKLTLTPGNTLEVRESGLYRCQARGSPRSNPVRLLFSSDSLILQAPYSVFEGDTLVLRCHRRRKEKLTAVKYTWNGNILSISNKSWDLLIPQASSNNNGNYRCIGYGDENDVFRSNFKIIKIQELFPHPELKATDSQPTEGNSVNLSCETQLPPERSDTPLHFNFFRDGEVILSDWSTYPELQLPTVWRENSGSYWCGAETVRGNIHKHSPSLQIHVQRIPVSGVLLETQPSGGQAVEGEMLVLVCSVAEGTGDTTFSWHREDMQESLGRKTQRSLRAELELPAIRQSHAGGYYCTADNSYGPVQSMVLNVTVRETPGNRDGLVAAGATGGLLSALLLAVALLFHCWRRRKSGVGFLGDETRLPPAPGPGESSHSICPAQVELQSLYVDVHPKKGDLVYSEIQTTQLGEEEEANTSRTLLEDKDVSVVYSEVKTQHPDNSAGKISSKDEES

[3] = molecular target: SLAMF9 protein (UniProt Q96A28 19-236, limits assumed); test: phage clone on SLAMF9 protein

Measured: binding result

SLAMF9 protein, sequence (Q96A28 19-236 limits assumed): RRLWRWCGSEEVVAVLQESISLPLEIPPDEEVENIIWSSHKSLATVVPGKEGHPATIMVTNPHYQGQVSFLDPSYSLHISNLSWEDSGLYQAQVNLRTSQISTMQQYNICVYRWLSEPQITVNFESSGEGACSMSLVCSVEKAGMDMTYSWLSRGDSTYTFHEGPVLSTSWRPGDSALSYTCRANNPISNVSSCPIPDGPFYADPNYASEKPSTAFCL

B1: ET200-010 (scFv)
scFv: QSALTQPASVSGSPGQSITISCTGTSSDVGGYNSVSWYQQHPGKAPRLMIYDVSNRPSGVSNRFSGSKSGNTASLTISGLQAEDEADYYCSSYTSSSTPLVFGTGTKVTVLGSRGGGGSGGGGSGGGGSLEMAQVQLVQSGAEVKKPGASVKVSCKASGYTFTSYGISWVRQAPGQGLEWMGWISAYNGNTNYAQKLQGRVTMTTDTSTSTAYMELRSLRSDDTAVYYCARGAVAYHDWGQGTLVTVSSTSGQAGQHHHHHHGAYPYDVPDYAS
notes: screened as phage clone; entry is VL-linker-VH-His tag-HA tag
no binding: [1] | [2] | [3]

B2: ET200-125 (scFv)
scFv: NFMLTQPHAVSESPGKTVTISCTRSSGSIASNYVQWYQQRPGSSPRTVIYEDNQRPSGVPGRFSGSIDSSSNSASLTISGLKTEDEADYYCQSYDSTSVLFGGGTKLTVLGSRGGGGSGGGGSGGGGSLEMAEVQLVQSGAEVKKPGSSVKVSCKASGGTFSSNSLSWVRQAPGQGLEWMGRIFPILGITNYAQKFQGRVTITADKSTSTAYMELSSLRSEDTAVYYCARGNYQWYDAFDIWGQGTMVTVSSTSGQAGQHHHHHHGAYPYDVPDYAS
notes: as for B1
no binding: [1] | [2] | [3]

B3: ET200-009 (scFv)
scFv: QSVLTQPPSASGTPGQTVTISCSGSNSNIGSNYVYWYQQLPGTAPKLLIYRNNQRPSGVPDRFSGSKSGTSASLAISGLRSEDEADYYCAAWDDSLSAYVFGTGTKVTVLGSRGGGGSGGGGSGGGGSLEMAQVQLVQSGAEVKKPGASVKVSCKASGYTFTSYGISWVRQAPGQGLEWMGWISAYNGNTNYAQKLQGRVTMTTDTSTSTAYMELRSLRSDDTAVYYCARSSGNMVSWKDMWGQGTLVTVSSTSGQAGQHHHHHHGAYPYDVPDYAS
notes: as for B1
no binding: [1] | [2] | [3]

B4: ET200-005 (scFv)
scFv: QPVLTQPPSVSVVPGKTARITCGGKNIGSKSVHWYQQKPGQAPVVVIHYDSDRPSGIPERFSGSNSGNTATLTISRVEAGDEADYYCQVWDSSSDHPYVFGTGTKVTVLGSRGGGGSGGGGSGGGGSLEMAQVQLVQSGAEVKKPGASVKVSCKASGYTFTNYGISWVRQAPGQGLEWMGWISAYNGNTNYAHKLQGRVTMTTDTSTSTANMELRSLRPDDTAVYYCARSYFGSHDYWGQGTLVTVSSTSGQAGQHHHHHHGAYPYDVPDYAS
notes: as for B1
no binding: [1] | [2] | [3]

B5: ET200-008 (scFv)
scFv: QSALTQPASVSGSPGQSITISCTGTSSDVGGYNYVSWYQQHPGKAPKLMIYDVSNRPSGVSNRFSGSKSGNTASLTISGLQAEDEADYYCSSYTSSSTSKVFGGGTKLTVLGSRGGGGSGGGGSGGGGSLEMAEVQLVESGGGVVRPGGSLRLSCAASGFTFGDYGMSWVRQAPGKGLEWVSGINWNGGSTGYADSVKGRFTISRDNAKNSLYLQMNSLRAEDTAVYYCARSKYNFHVYYDYWGQGTLVTVSSTSGQAGQHHHHHHGAYPYDVPDYAS
notes: as for B1
no binding: [1] | [2] | [3]

B6: ET200-123 (scFv)
scFv: QAVLTQPPSASGTPGQRVTISCSGSSSNIGSNTVNWYQQLPGTAPKLLMYNNDQRPSGVPDRFSGSKSGTSASLAISGLQSEDEADYYCAAWDDSLNGYVFGPGTKVTVLGSRGGGGSGGGGSGGGGSLEMAQVQLVESGAEVKKPGASVKVSCKASGYTFTSYGISWVRQAPGQGLEWMGWISAYNGNTNYAQKLQGRVTMTTDTSTSTAYMELRSLRSDDTAVYYCARDLSRGANPHYYYYYGMDVWGQGTTVTVSSTSGQAGQHHHHHHGAYPYDVPDYAS
notes: as for B1
no binding: [1] | [2] | [3]

B7: ET200-121 (scFv)
scFv: QSVLTQPPSVSGAPGQRVTVSCTGSRSNIGAGYDVHWYQQLPGTAPKLLIYGNSNRPPGVPDRFSGSKSGTSASLVITGLQAEDAADYYCQSYDNTVRESPYVFGTGTKVTVLGSRGGGGSGGGGSGGGGSLEMAEVQLVQSGAEVKKPGASVKVSCKVSGYTLTELSMHWVRQAPGKGLEWMGGFDPEDGETIYAQKFQGRVTMTEDTSTDTAYMELSSLRSEDTAVYYCATESNLVSRHYYYYGMDVWGQGTTVTVSSTSGQAGQHHHHHHGAYPYDVPDYAS
notes: as for B1
no binding: [1] | [2] | [3]

B8: ET200-124 (scFv)
scFv: SYVLTQPPSVSVAPGKTARISCGGNDIGSKSVFWYQQRPGQAPVLVVYDDSDRPSGLPERFSGFNSGNTATLTISRVEAGDEADYYCQVWDSSSDHYVFGTGTKVTVLGSRGGGGSGGGGSGGGGSLEMAQVQLVESGGGLVQPGRSLRLSCAASGFTFDDYAMHWVRQAPGKGLEWVSGISWNSGSIGYADSVKGRFTISRDNAKNSLYLQMNSLRAEDTALYYCAKDITYGSGSYGAFDIWGQGTMVTVSSTSGQAGQHHHHHHGAYPYDVPDYAS
notes: as for B1
no binding: [1] | [2] | [3]
